Target: T1, Arabidopsis TIR1 (Transport Inhibitor Response 1), coexpressed with AtASK1 (Arabidopsis, UniProt Q570C0 1-594; Q39255 1-160)
T1 construct: a TEV site stands between the tags and TIR1; ASK1 (AtASK1), Arabidopsis, coexpressed with TIR1; a TEV site stands between the tag and ASK1; that the sample is the TIR1-ASK1 complex is surmised from the coexpression; Cleavage with TEV is not mentioned; also called AtTIR1; His10-eGFP-FLAG-(TEV)-AtTIR1
T1 sequence (looked up) 1: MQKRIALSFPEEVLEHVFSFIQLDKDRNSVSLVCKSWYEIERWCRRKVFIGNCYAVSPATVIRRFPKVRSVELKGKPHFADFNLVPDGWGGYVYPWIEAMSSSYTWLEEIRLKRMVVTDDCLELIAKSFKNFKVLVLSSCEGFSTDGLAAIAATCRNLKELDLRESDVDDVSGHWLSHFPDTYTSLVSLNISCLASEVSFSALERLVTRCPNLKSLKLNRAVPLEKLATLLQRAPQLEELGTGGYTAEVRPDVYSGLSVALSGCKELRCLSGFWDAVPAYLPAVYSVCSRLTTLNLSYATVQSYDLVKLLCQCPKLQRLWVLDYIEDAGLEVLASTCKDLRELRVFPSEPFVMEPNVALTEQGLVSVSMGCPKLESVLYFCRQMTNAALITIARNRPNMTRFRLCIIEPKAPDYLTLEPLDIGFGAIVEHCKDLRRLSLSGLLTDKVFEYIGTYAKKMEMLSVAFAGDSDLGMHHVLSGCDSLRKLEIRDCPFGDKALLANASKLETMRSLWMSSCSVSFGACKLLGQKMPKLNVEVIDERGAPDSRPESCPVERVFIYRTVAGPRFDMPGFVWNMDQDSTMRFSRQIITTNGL
T1 sequence (looked up) 2: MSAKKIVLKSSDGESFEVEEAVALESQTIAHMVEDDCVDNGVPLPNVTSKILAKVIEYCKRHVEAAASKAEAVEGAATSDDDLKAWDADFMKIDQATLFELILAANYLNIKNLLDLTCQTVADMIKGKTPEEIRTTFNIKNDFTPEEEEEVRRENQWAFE
Test: NMR titration; 1H-15N HSQC of 15N-labeled AXR3 DI/DII with unlabeled TIR1 added, 1:3 ratio, 5 to 10 µM TIR1, 4 °C, 20 mM sodium phosphate pH 6.0, 150 mM NaCl, 3 mM EDTA, 10 mM DTT; loss of HN cross peak intensity; no auxin
Details: both partners purified

B1: AXR3 DI/DII (N-terminal half of the Aux/IAA protein IAA17/AXR3, residues 1 to 101) (domain or fragment, UniProt P93830 1-101, looked up)
chain: MMGSVELNLRETELCLGLPGGDTVAPVTGNKRGFSETVDLKLNLNNEPANKEGSTTHDVVTFDSKEKSACPKDPAKPPAKAQVVGWPPVRSYRKNVMVSCQ
modifications: 15N isotopically labeled
notes: AXR3 (IAA17), Aux/IAA protein, domains I and II (DI/DII), residues 1 to 101, without the C-terminal PB1 domain; also called AXR3_(1-101); N-terminal half of AXR3; source: E. coli Rosetta DE3, minimal media with 15N ammonium chloride, purified (Co-NTA)
Does B1 bind?
Result: binds

— article PMC10556615 (Proceedings of the National Academy of Sciences of the …, 2023)
